{"source": "the DeepSol protein solubility set", "data": [{"assay": "soluble on expression in E. coli; label from the status in PepcDB or PDB records", "values": [{"sequence": "MGSDKIHHHHHHMKFIVKTQMDMEAVAGNYIREVLPNAKVTIAPEGYPGIVIVESEEENALQKILEVPEVEKVYPVLIEVPANLDSIKSAADEIVKYIKEGETFAVRTKKRGKRDFSSVDVNVVLGARIKDLTNAEVNLSYPDKVVQVEIIGEKAYISVIPGKEYTKWKKYPKDKPDCRKLFRKLTIVQMPYWGDYKTARAFGEKIGRAAQAFEVKELIIAPKEKMNAYELMAFIRGVKEGQESRYQIQKEAYPWEVEKVPVTVWDLYQVIRDKRRNRRLIIITDPKGPTLNEVKDKLARDMYYAKEIIIFIGSREGIPIGLFRFADYVVDLAPYMTFATEHGIPATLVALWTIYEEELRRRGEIND", "soluble on expression in E. coli": "not soluble"}, {"sequence": "MGSDKIHHHHHHMKFKQDYFDQLSGFYSQVTPQGLPRPQWLAWSEDAAALIGLKQPDDELLQGLAGNQAIPGASYYAQVYSGHQFGGYSPQLGDGRSIILGEAEGPQGYWDVALKGAGMTPYSRHGDGRAVMRSAVREFLVSEALHHLNIPTTRALAVIGSDLPVWRETQETAAITVRLAKSHIRFGHFEFFCHSEQGSKDKLKQLLDFTLSQHYPELSRDQAGYIAWFNRVVADTAKLIAHWQAVGFAHGVMNTDNMSILGDSFDFGPFAFLDTFEEDFICNHSDPNGRYAFGQQPGVGLWNLQRLAQALVPIIASDDLIAALNTYQHHLVQAYLVLMRDKLGIKLVEPAGSERDEADLQLIGGFTLLMEANRLDHTNTWRRFAQLDPNSQHSSLRDDFIDLAGFDTWYQAYQERLGQVSDVAGWQAVRAQVNPKYVLRNYLAQEAIIACEEGNTQPLAELHQLLTRPFDEQPEKEAYAKRPPEWGQGLIMSCSS", "soluble on expression in E. coli": "not soluble"}, {"sequence": "MGSDKIHHHHHHMKFMKSLEPLNNHDETAAGDAMRGPSGGGNSASILNEAENILRDYYGGAIESLFIERLVVGVFFTGVKLSNGCGGVAYTPPETIRNASRRILRGSPSAIRGKSADVVISGKIPSPFADVIRLAAINALSVPFFQDGRYDFEKSDDLSDVSHLFTGRRVCMVGAIVPLLKRFKKMGVSEIKVIDRKKDSQIEVELACGEFLSPEQTAETIAQCETAVFTGAAVANGTIEHLLRLVPKEAAVAVVGPTAGFIPDPLFRRNVALVGTAMVTDIAAALDIIAEGGGAYPLFGRCVKKINILNRKRIEQLKPGSKTA", "soluble on expression in E. coli": "not soluble"}, {"sequence": "MGSDKIHHHHHHMKFPRKGIPQEEVMRELEKYTSKDLSFSSGKILGSMCTLPHELAKEVFCMYMDRNLGDPGLHPGTKKIEEEVIEMLSDLLHLERGYGHIVSGGTEANILAVRAFRNLADVENPELILPKSAHFSFIKAGEMLGVKLIWADLNPDYTVDVKDVEAKISENTIGIVGIAGTTGLGVVDDIPALSDLARDYGIPLHVDAAFGGFVIPFAKELGYDLPDFDFKLKGVQSITIDPHKMGMAPIPAGGIVFRHKKYLRAISVLAPYLAGGKIWQATITGTRPGASVLAVWALIKHLGFEGYMEIVDRAMKLSRWFAEEIKKTPGAWLVREPMLNIVSFKTKNLRRVERELKSRGWGISAHRGYIRIVSHASCDGGHD", "soluble on expression in E. coli": "not soluble"}, {"sequence": "MGSDKIHHHHHHMKFSKLADQVWGEEPDDQVRSFVFMSNLDAQETANTMDVSVSVERIHADLCGNTELASELHYTPDEWDEAQGWVKINYPLIDDTASASLDVVLDATFQPLPGQPFEGEALTLIDALLHHAENVAASNPWKRTTFHTAHMHPPGSNADCDYCLVLQRRGYVKAHEEIQQTIPLPSGDWSAGEFTVVDVEGTAFPSALIPSIVELQHRAALDVPHGNLSVAPAQWDEHRLAQQSERILKTGTKLFTVLFAEGSTVAAMSSIAIPPGSNPDIAEQGLTIVHPDFRGRGLGTAVKLAGLSLLSRCHPEIQRVATSNAVDNHAMLAINRSIGATEIARTTLWEKKL", "soluble on expression in E. coli": "not soluble"}, {"sequence": "MGSDKIHHHHHHMKGVLYISFLVCILLGCSDSDGLPDGGKDKTARTELEIVSASIVEGNTQTRADVPFTPGSSIALFCHGQAAETSYTPVNNRKYTLNSGDSKWTAESEATTIYLGSEKADVCGYYPYVEGTVGTADTLYNVRTTIPMDTQDYDPSKELYYVANQEVDAKRYFVEMHFKHAYSRLVLNIGVEDAYPATCSINSVALANDSLFRKAVIDITSGTVGIHPDDTEKQFRGGYNITKDLPYLLDSPDKKYQADLLMIPTKLLPDPFEPTKGLSVIVNVSGFPATVIIPIDDLSDFESGKKYVVSLKLRGIAIKSVTVTTTDWDEKRLNEGVDYEPLPQS", "soluble on expression in E. coli": "not soluble"}]}]}
